Experimental data from patent publication US20240116985A1 (published 2024).
Starred links: 1 amine or outer side, 2 acyl side, 3 side chain; linkers in the order of their positions; H or OH if unused. Positions of bridges follow the written chain, without caps; N, C: chain ends. Non-standard residues stand in square brackets, D forms with d. Primed or numbered codes have the meaning given here. *: point of attachment. PyrS2″ = (S)-3-amino-1-((pent-4-en-1-yloxy)carbonyl)pyrrolidine-3-carboxylic acid (stapling residue), C=CCCCOC(=O)N1CC[C@@](N[*:1])(C(=O)[*:2])C1; (MorphAc)GAbu = (S)-2-amino-4-(N-(carboxymethyl)-2-morpholinoacetamido)butanoic acid, O=C(CN1CCOCC1)N(CC[C@H](N[*:1])C(=O)[*:2])CC(=O)[*:3]; TfeGA = (S)-2-amino-3-((carboxymethyl)(2,2,2-trifluoroethyl)amino)propanoic acid, O=C([C@H](CN(CC(=O)[*:3])CC(F)(F)F)N[*:1])[*:2]; PyrS2 = (S)-3-amino-1-((pent-4-en-1-yloxy)carbonyl)pyrrolidine-3-carboxylic acid, C=CCCCOC(=O)N1CC[C@@](N[*:1])(C(=O)[*:2])C1; B5(22) = 2-amino-2-(pent-4-en-1-yl)hept-6-enoic acid (two alkene side chains), C=CCCCC(CCCC=C)(N[*:1])C(=O)[*:2]; HypEs5 = (2R,4S)-4-(pent-4-enoyloxy)pyrrolidine-2-carboxylic acid, C=CCCC(=O)O[C@H]1C[C@H](C(=O)[*:2])N([*:1])C1; GAbu = (S)-2-amino-4-((carboxymethyl)amino)butanoic acid, O=C([C@H](CCNCC(=O)[*:3])N[*:1])[*:2]; B5(3) = 2,2-bis(4-pentenyl)glycine (stitching residue), C=CCCCC(CCCC=C)(N[*:1])C(=O)[*:2]; B5 = 2-amino-2-(pent-4-en-1-yl)hept-6-enoic acid, C=CCCCC(CCCC=C)(N[*:1])C(=O)[*:2]; Phenylacetyl(2,3,4,5,6-F5) = O=C(Cc1c(F)c(F)c(F)c(F)c1F)*; Benzoyl(2,3,4,5,6-F5) = O=C(c1c(F)c(F)c(F)c(F)c1F)*; Acetyl(4-Me-piperazin-1-yl) = CN1CCN(CC(=O)*)CC1; Phe(3-COOH) = N[C@@H](Cc1cccc(C(=O)O)c1)C(=O)O; Ala(4-thiazolyl) = N[C@@H](Cc1cscn1)C(=O)O; Phe(2-Cl) = N[C@@H](Cc1ccccc1Cl)C(=O)O; Phe(3-F) = N[C@@H](Cc1cccc(F)c1)C(=O)O; Phe(4-F) = N[C@@H](Cc1ccc(F)cc1)C(=O)O; 1Nal = N[C@@H](Cc1cccc2ccccc12)C(=O)O; Bta = N[C@@H](Cc1csc2ccccc12)C(=O)O; αAllylPro = C=CC[C@@]1(C(=O)O)CCCN1; tBuAla = CC(C)(C)C[C@H](N)C(=O)O; 3Thi = N[C@@H](Cc1ccsc1)C(=O)O; Cha = N[C@@H](CC1CCCCC1)C(=O)O; Cit = NC(=O)NCCC[C@H](N)C(=O)O; S8 = C=CCCCCCC[C@](C)(N)C(=O)O; hSer = N[C@@H](CCO)C(=O)O

T1: B-cat-Halo (UniProt P35222 1-781)
T1 sequence (looked up): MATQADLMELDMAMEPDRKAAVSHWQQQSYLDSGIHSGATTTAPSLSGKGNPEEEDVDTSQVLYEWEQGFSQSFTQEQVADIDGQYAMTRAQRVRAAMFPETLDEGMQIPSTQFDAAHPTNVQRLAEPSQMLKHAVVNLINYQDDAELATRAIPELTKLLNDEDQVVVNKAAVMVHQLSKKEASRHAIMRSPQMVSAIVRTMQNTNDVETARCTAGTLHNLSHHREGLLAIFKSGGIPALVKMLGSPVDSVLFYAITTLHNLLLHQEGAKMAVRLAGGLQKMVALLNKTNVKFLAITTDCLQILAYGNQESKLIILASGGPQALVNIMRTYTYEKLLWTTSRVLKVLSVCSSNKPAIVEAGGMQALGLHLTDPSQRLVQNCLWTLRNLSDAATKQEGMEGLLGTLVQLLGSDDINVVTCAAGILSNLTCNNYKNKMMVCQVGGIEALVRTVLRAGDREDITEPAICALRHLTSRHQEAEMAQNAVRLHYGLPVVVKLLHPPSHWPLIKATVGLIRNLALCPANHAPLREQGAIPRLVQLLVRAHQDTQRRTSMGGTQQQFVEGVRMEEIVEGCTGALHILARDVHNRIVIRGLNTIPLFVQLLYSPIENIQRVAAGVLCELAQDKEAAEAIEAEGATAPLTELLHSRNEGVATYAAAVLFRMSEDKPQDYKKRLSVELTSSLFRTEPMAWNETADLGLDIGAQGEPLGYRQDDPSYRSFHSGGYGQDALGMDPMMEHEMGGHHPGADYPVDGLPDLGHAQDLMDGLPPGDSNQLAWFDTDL

T2: B-cat-Halo (beta-catenin HaloTag construct expressed in HEK293 cells) (UniProt P35222 1-781)
T2 sequence (looked up): T1 sequence (looked up)

T3: B-cat-Halo (beta-catenin HaloTag fusion construct expressed in HEK293 cells) (UniProt P35222 1-781)
T3 sequence (looked up): T1 sequence (looked up)


biological target: T1, B-cat-Halo; assay: cell-based or functional assay

Binder	NanoBRET Abs IC50 [µM]
Ac-[HypEs5]D[tBuAla][B5(3)]D[TfeGA]AAFL[PyrS2″][3Thi][Bta]Q-NH2 (staple 1-4, 4-11; also: staple double bonds reduced to -CH2-CH2-) [I-2265]	> 20
Ac-[αAllylPro]D[tBuAla][B5(3)]D[Phe(3-COOH)]AAFL[PyrS2″][Phe(3-F)][Bta]A-NH2 (staple 1-4, 4-11) [I-2261]	6.4
Ac-[αAllylPro]D[tBuAla][B5(3)]D[Phe(3-COOH)]AAFL[PyrS2″][Phe(4-F)][Bta]A-NH2 (staple 1-4, 4-11) [I-2263]	4.3
Ac-[αAllylPro]D[tBuAla][B5(3)]D[Phe(3-COOH)]AA[Phe(3-F)]L[PyrS2″][3Thi][Bta]A-NH2 (staple 1-4, 4-11) [I-2260]	3.1
Ac-[HypEs5]D[tBuAla][B5(3)]D[TfeGA]AAFL[PyrS2″][3Thi][Bta]Q-NH2 (staple 1-4, 4-11) [I-2264]	25.5

Results, then the binder that gave them:

NanoBRET Abs IC50 [µM]	Binder
42.2	Ac-[αAllylPro]D[tBuAla][B5(22)]D[(MorphAc)GAbu]AAFL[PyrS2][3Thi][Bta]Q-NH2 (staple 1-4, 4-11) [I-2249]
2.9	Ac-[αAllylPro]D[tBuAla][B5(3)]D[Phe(3-COOH)]AAFL[PyrS2″][3Thi][Bta]A-NH2 (staple 1-4, 4-11) [I-2257]
3.7	Ac-[αAllylPro]D[tBuAla][B5(3)]D[Phe(3-COOH)]AA[Phe(4-F)]L[PyrS2″][3Thi][Bta]A-NH2 (staple 1-4, 4-11) [I-2262]
6.4	Ac-[αAllylPro]D[tBuAla][B5(22)]D[GAbu](Phenylacetyl(2,3,4,5,6-F5))AAFL[PyrS2][3Thi][Bta]Q-NH2 (staple 1-4, 4-11) [I-2251]
36.2	Ac-[αAllylPro]D[tBuAla][B5(22)]D[GAbu](Acetyl(4-Me-piperazin-1-yl))AAFL[PyrS2][3Thi][Bta]Q-NH2 (staple 1-4, 4-11) [I-2250]
4.3	Ac-[αAllylPro]D[tBuAla][B5(3)]D[Phe(3-COOH)]AAFF[PyrS2″][3Thi][Bta]A-NH2 (staple 1-4, 4-11) [I-2259]
17.5	Ac-[αAllylPro]D[tBuAla][B5(22)]D[GAbu](Benzoyl(2,3,4,5,6-F5))AAFL[PyrS2][3Thi][Bta]Q-NH2 (staple 1-4, 4-11) [I-2252]

biological target: T2, B-cat-Halo (beta-catenin HaloTag …); assay: cell-based or functional assay

Binder	NanoBRET Abs IC50 [µM]
Ac-[αAllylPro]D[tBuAla][B5]DDAAFN[PyrS2″][3Thi][Bta][dH]-NH2 (staple 1-4, 4-11) [I-813]	20.9
Ac-[αAllylPro]D[tBuAla][B5]DDAAFN[PyrS2″][3Thi][Bta]N-NH2 (staple 1-4, 4-11) [I-816]	13.7
Ac-[αAllylPro]D[tBuAla][B5(3)]DDAAF[Cit][PyrS2″][3Thi][Bta]Q-NH2 (staple 1-4, 4-11) [I-805]	18.5
Ac-[αAllylPro]D[tBuAla][B5(3)]DDAAF[Cit][PyrS2″][3Thi][Bta]H-NH2 (staple 1-4, 4-11) [I-806]	21.6
Ac-[αAllylPro]D[tBuAla][B5(3)]DDAAFF[PyrS2″][3Thi][Bta]Q-NH2 (staple 1-4, 4-11) [I-807]	3.2
Ac-[αAllylPro]D[tBuAla][B5]DDAAFN[PyrS2][1Nal][Bta]H-NH2 (staple 1-4, 4-11) [I-794]	26.4
Ac-[αAllylPro]D[tBuAla][B5(3)]DDAAFT[PyrS2″][3Thi][Bta]H-NH2 (staple 1-4, 4-11) [I-810]	18

The remaining lines, values ahead:

NanoBRET Abs IC50 [µM]	Binder
13.5	Ac-[αAllylPro]D[tBuAla][B5(3)]DDAAF[hSer][PyrS2″][3Thi][Bta]H-NH2 (staple 1-4, 4-11) [I-804]
4.8	Ac-[αAllylPro]D[tBuAla][B5]DDAAFL[PyrS2][3Thi][Bta]H-NH2 (staple 1-4, 4-11) [I-802]
4.4	Ac-[αAllylPro]D[tBuAla][B5(3)]DDAAFF[PyrS2″][3Thi][Bta]H-NH2 (staple 1-4, 4-11) [I-808]
> 20	Ac-[αAllylPro]D[tBuAla][B5(3)]DDAAFN[PyrS2″][Ala(4-thiazolyl)][Bta]Q-NH2 (staple 1-4, 4-11) [I-811]
48.6	Ac-[αAllylPro]D[tBuAla][B5(3)]DDAA[Ala(4-thiazolyl)]N[PyrS2″][3Thi][Bta]Q-NH2 (staple 1-4, 4-11) [I-812]

biological target: T3, B-cat-Halo (beta-catenin HaloTag fusion …); assay: cell-based or functional assay

Binder	NanoBRET Abs IC50 [µM]
Ac-[αAllylPro]D[Cha][B5(3)]DDAAFS[PyrS2″]F[Bta]S-NH2 (staple 1-4, 4-11) [I-1100]	24.3
Ac-[αAllylPro]D[tBuAla][B5(3)]DEAAFL[S8][Phe(2-Cl)][Bta]Q-NH2 (staple 1-4, 4-11) [I-1096]	8.6
Ac-[αAllylPro]D[tBuAla][B5(3)]DDAAFS[PyrS2″]F[Bta]S-NH2 (staple 1-4, 4-11) [I-1099]	9

Second part, the binder after the results:

NanoBRET Abs IC50 [µM]	Binder
> 20	Ac-[αAllylPro]D[tBuAla][B5(3)]DDAAFL[S8][Phe(2-Cl)][Bta]Q-NH2 (staple 1-4, 4-11) [I-1095]
> 20	Ac-[αAllylPro]D[tBuAla][B5(3)]DDAAFL[S8][Phe(2-Cl)][Bta][dT]-NH2 (staple 1-4, 4-11) [I-1097]
